Experimental data from patent US20200088729.

How the values were obtained:
Test in all cases: SPR
[1] = target: EED (UniProt O75530); conditions: HBS-EP+, 3.25 mM MgCl2, 25 C
[2] = target: EZH2 (UniProt Q15910); conditions: HBS-EP+, 3.25 mM MgCl2, 25 C
[3] = target: PTBP1 (UniProt P26599); conditions: HBS-EP+, 3.25 mM MgCl2, 25 C
[4] = target: SUZ12 (UniProt Q15022); conditions: HBS-EP+, 3.25 mM MgCl2, 25 C
[5] = target: T1, HaloTag-DasherGFP-3xLambdaN-V5 (synthetic construct (lambda phage N peptide)) (UniProt P03045); conditions: ka 29700 1/Ms, kd 0.0012 1/s; HBS-EP+, 3.25 mM MgCl2, 25 C
T1 sequence: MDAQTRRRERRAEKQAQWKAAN

Chain of SUZ12 (Q15022 whole entry): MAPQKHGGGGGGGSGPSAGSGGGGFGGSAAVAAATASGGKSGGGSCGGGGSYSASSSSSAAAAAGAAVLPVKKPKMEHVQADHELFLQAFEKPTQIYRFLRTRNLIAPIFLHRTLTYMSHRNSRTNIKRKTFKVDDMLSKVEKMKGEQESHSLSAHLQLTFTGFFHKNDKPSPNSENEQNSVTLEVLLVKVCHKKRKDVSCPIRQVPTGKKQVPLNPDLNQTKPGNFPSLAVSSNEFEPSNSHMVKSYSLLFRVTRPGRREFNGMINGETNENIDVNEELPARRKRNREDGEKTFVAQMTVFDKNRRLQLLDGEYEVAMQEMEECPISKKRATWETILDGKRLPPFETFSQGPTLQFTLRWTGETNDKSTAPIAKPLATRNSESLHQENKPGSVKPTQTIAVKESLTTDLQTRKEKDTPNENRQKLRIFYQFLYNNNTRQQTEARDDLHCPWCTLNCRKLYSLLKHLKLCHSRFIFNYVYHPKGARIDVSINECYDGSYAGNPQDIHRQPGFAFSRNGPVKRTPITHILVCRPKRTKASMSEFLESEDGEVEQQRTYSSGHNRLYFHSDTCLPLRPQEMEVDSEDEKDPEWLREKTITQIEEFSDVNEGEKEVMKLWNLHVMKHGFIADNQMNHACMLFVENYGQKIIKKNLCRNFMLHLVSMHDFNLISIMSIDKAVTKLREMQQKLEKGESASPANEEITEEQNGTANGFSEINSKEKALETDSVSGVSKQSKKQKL
Chain of PTBP1 (P26599 whole entry): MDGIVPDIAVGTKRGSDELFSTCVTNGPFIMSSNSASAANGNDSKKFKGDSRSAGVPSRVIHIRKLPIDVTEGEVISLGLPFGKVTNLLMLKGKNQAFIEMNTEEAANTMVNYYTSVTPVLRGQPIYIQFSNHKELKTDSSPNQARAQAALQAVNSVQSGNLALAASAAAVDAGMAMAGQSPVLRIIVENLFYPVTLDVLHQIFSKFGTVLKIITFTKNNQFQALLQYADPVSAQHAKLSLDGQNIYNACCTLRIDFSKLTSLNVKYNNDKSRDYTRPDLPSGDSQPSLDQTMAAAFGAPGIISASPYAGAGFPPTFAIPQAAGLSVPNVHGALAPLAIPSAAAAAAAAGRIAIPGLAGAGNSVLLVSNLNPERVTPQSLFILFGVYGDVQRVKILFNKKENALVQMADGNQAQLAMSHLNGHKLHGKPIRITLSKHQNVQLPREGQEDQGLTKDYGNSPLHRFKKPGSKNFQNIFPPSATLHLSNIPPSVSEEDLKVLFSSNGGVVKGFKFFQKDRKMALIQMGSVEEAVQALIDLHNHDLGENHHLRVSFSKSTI
Chain of EZH2 (Q15910 whole entry): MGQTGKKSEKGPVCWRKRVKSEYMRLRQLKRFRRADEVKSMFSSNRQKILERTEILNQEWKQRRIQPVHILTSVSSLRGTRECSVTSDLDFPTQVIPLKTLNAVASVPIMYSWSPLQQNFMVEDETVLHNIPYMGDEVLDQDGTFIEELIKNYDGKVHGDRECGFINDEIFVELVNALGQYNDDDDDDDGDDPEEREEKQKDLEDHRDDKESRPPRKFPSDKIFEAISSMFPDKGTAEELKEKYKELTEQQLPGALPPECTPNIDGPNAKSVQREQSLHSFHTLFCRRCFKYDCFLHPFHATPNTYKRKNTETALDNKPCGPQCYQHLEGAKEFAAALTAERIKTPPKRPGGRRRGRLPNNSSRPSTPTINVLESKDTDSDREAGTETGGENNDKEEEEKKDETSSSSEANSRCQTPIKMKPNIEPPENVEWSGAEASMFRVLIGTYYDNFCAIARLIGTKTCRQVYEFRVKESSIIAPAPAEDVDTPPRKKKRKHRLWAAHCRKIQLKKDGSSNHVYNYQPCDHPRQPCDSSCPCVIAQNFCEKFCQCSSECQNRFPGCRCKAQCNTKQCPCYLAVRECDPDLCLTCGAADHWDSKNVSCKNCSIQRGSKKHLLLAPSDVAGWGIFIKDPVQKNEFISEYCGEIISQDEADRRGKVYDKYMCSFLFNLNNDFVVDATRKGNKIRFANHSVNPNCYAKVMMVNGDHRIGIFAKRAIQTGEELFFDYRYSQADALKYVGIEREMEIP
Chain of EED (O75530 whole entry): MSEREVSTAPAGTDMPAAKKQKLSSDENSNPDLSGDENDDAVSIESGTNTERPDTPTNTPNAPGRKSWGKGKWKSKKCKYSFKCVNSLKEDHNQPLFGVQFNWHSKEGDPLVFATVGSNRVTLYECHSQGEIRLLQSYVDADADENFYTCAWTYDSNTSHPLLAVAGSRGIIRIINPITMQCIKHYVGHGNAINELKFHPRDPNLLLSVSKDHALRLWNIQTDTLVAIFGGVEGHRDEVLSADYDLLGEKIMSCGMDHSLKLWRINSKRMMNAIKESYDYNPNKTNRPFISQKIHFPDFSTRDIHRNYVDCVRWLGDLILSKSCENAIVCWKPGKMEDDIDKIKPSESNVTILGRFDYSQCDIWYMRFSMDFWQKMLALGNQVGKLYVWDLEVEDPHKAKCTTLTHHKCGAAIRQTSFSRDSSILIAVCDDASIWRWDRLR

Substance: MBP RNA (nt 1-240)
- Kd [1]: 1630 nM
- Kd [2]: 58100 nM
- Kd ([3]; U-value 20): 8680 nM
- Kd [4]: 1350 nM

Substance: MBP-5xBoxB RNA
- Kd ([1]; U-value 20): 2940 nM
- Kd [2]: 66000 nM
- Kd [5]: 39.3 nM
- Kd [3]: 104 nM
- Kd [4]: 96600 nM

Substance: Xist A-repeat RNA
- Kd [1]: 257 nM
- Kd [2]: 56000 nM
- Kd [3]: 261 nM
- Kd ([4]; U-value 26 flagged with asterisk (poor fit)): 1790 nM

Substance: Xist E-repeat RNA
- Kd [1]: 1100 nM
- Kd ([2]; U-value 20): 13200 nM
- Kd [3]: 59.6 nM
- Kd [4]: 60600 nM
